Data from patent publication US20230374157A1.

How the values were obtained:
[1] = molecular target: His-tagged human EGFR extracellular domain (expressed and purified in-house) (human) (UniProt P00533); assay: BLI, antibody on AHC tips, monomeric EGFR ECD in solution, 1:1 fit
[2] = molecular target: His-tagged human HER3 extracellular domain (Acro ER3-H5223) (human) (UniProt P21860); assay: BLI, antibody on AHC tips, monomeric HER3 ECD in solution, 1:1 fit

Kd [1]: 14.6 nM | koff [1]: 0.00438 s⁻¹ | kon [1]: 300000 M⁻¹ s⁻¹ | Kd [2]: 4.29 nM | koff [2]: 0.000877 s⁻¹ | kon [2]: 205000 M⁻¹ s⁻¹
B1: SI-1C4 (duligotuzumab), 2-in-1 bispecific antibody against EGFR and HER3 (bispecific antibody, from a related filing, V domains shown)
VH: EVQLVESGGGLVQPGGSLRLSCAASGFTLSGDWIHWVRQAPGKGLEWVGEISAAGGYTDYADSVKGRFTISADTSKNTAYLQMNSLRAEDTAVYYCARESRVSFEAAMDYWGQGTLVTVSS
VL: DIQMTQSPSSLSASVGDRVTITCRASQNIATDVAWYQQKPGKAPKLLIYSASFLYSGVPSRFSGSGSGTDFTLTISSLQPEDFATYYCQQSEPEPYTFGQGTKVEIKR
